# Data from the supplement of paper PMC10567573.
# B1: GAGE1 (parent)
# chain: QPPEMIGPMRPEQFSDEVEPATPE
# B2: KLHL14 (parent)
# chain: YVIGGRNETGYLSSVECYNLETNE
# Variants of: B1
# Experiment: protein stability index of a GFP-peptide fusion (GPS, HEK-293T) (PSI 1-6); higher = more stable
# Settings: c terminus: a fixed tail appended
# 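Note: lentivirally expressed fusions sorted by FACS into six bins by GFP to DsRed ratio, PSI derived from sequencing read proportions per bin multiplied by bin number.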
row,Variant,protein stability index
1,QPPEMIGPMRPEQFSDEVEPALPE [T22L],4.79
2,QPPEMIGPMRPEQFSDEVEPARPE [T22R],4.61
3,QPPEMIGPMRPEQFSDEVEPAKPE [T22K],4.96
4,QPPEMIGPMRPEQFSDEVEPAVPE [T22V],4.8
5,QPPEMIGPMRPEQFSDEVEPAMPE [T22M],4.79
6,QPPEMIGPMRPEQFSDEVEPAIPE [T22I],4.66
7,QPPEMIGPMRPEQFSDEVEPANPE [T22N],4.56
8,QPPEMIGPMRPEQFSDEVEPAQPE [T22Q],5.2
9,QPPEMIGPMRPEQFSDEVEPAPPE [T22P],5.08
10,QPPEMIGPMRPEQFSDEVEPAWPE [T22W],4.35
11,QPPEMIGPMRPEQFSDEVEPAYPE [T22Y],4.84
12,QPPEMIGPMRPEQFSDEVEPATPV [E24V],4.45
13,QPPEMIGPMRPEQFSDEVEPATPF [E24F],4.83
14,QPPEMIGPMRPEQFSDEVEPATPI [E24I],4.56
15,QPPEMIGPMRPEQFSDEVEPATPS [E24S],4.65
16,QPPEMIGPMRPEQFSDEVEPATPQ [E24Q],4.61
17,QPPEMIGPMRPEQFSDEVEPATPL [E24L],4.09
18,QPPEMIGPMRPEQFSDEVEPATPN [E24N],5.18
19,QPPEMIGPMRPEQFSDEVEPATPA [E24A],4.99
20,QPPEMIGPMRPEQFSDEVEPATPM [E24M],4.37
21,QPPEMIGPMRPEQFSDEVEPATPY [E24Y],4.57
22,QPPEMIGPMRPEQFSDEVEPATPC [E24C],4.6
23,QPPEMIGPMRPEQFSDEVEPATPR [E24R],4.27
24,QPPEMIGPMRPEQFSDEVEPATPK [E24K],4.68
25,QPPEMIGPMRPEQFSDEVEPATPP [E24P],4.65

row,Variant,protein stability index
1,QPPEMIGPMRPEQFSDEVEPATPT [E24T],4.98
2,QPPEMIGPMRPEQFSDEVEPATPW [E24W],4.16
3,QPPEMIGPMRPEQFSDEVEPATPH [E24H],4.62
4,QPPEMIGPMRPEQFSDEVEPATPD [E24D],4.51
5,QPPEMIGPMRPEQFSDEVEPATPG [E24G],4.67
6,QPPEMIGPMRPEQFSDEVEPATCE [P23C],4.57
7,QPPEMIGPMRPEQFSDEVEPATLE [P23L],4.9
8,QPPEMIGPMRPEQFSDEVEPATGE [P23G],5.2
9,QPPEMIGPMRPEQFSDEVEPATQE [P23Q],5.16
10,QPPEMIGPMRPEQFSDEVEPATEE [P23E],4.81
11,QPPEMIGPMRPEQFSDEVEPATSE [P23S],5.14
12,QPPEMIGPMRPEQFSDEVEPATTE [P23T],4.81
13,QPPEMIGPMRPEQFSDEVEPATFE [P23F],4.69
14,QPPEMIGPMRPEQFSDEVEPATAE [P23A],5.02
15,QPPEMIGPMRPEQFSDEVEPATDE [P23D],5.28
16,QPPEMIGPMRPEQFSDEVEPATIE [P23I],4.72
17,QPPEMIGPMRPEQFSDEVEPATWE [P23W],4.41
18,QPPEMIGPMRPEQFSDEVEPATNE [P23N],5.26
19,QPPEMIGPMRPEQFSDEVEPATKE [P23K],5.1
20,QPPEMIGPMRPEQFSDEVEPATHE [P23H],5
21,QPPEMIGPMRPEQFSDEVEPATRE [P23R],5.3
22,QPPEMIGPMRPEQFSDEVEPATME [P23M],5.05
23,QPPEMIGPMRPEQFSDEVEPATVE [P23V],4.5
24,QPPEMIGPMRPEQFSDEVEPATYE [P23Y],4.4

# Variants of: B2
# Experiment: as above
# Settings: c terminus: a fixed tail appended
row,Variant,protein stability index
1,MVIGGRNETGYLSSVECYNLETNE [Y1M],3.55
2,CVIGGRNETGYLSSVECYNLETNE [Y1C],3.48
3,RVIGGRNETGYLSSVECYNLETNE [Y1R],4.39
4,LVIGGRNETGYLSSVECYNLETNE [Y1L],2.96
5,VVIGGRNETGYLSSVECYNLETNE [Y1V],3.2
6,GVIGGRNETGYLSSVECYNLETNE [Y1G],4.99
7,SVIGGRNETGYLSSVECYNLETNE [Y1S],4.63
8,FVIGGRNETGYLSSVECYNLETNE [Y1F],2.19
9,WVIGGRNETGYLSSVECYNLETNE [Y1W],2.87
10,KVIGGRNETGYLSSVECYNLETNE [Y1K],4.12
11,AVIGGRNETGYLSSVECYNLETNE [Y1A],4.43
12,HVIGGRNETGYLSSVECYNLETNE [Y1H],4.61
13,DVIGGRNETGYLSSVECYNLETNE [Y1D],4.64
14,NVIGGRNETGYLSSVECYNLETNE [Y1N],4.25
15,EVIGGRNETGYLSSVECYNLETNE [Y1E],4.45
16,IVIGGRNETGYLSSVECYNLETNE [Y1I],2.06
17,PVIGGRNETGYLSSVECYNLETNE [Y1P],4.82
18,QVIGGRNETGYLSSVECYNLETNE [Y1Q],4.68
19,TVIGGRNETGYLSSVECYNLETNE [Y1T],4.71
20,YVDGGRNETGYLSSVECYNLETNE [I3D],2.39
21,YVHGGRNETGYLSSVECYNLETNE [I3H],1.83
22,YVEGGRNETGYLSSVECYNLETNE [I3E],2.64
23,YVFGGRNETGYLSSVECYNLETNE [I3F],1.76

row,Variant,protein stability index
1,YVAGGRNETGYLSSVECYNLETNE [I3A],3.4
2,YVGGGRNETGYLSSVECYNLETNE [I3G],2.4
3,YVCGGRNETGYLSSVECYNLETNE [I3C],1.66
4,YGIGGRNETGYLSSVECYNLETNE [V2G],4
5,YEIGGRNETGYLSSVECYNLETNE [V2E],4.59
6,YSIGGRNETGYLSSVECYNLETNE [V2S],3.89
7,YLIGGRNETGYLSSVECYNLETNE [V2L],3.33
8,YDIGGRNETGYLSSVECYNLETNE [V2D],4.57
9,YCIGGRNETGYLSSVECYNLETNE [V2C],2.87
10,YMIGGRNETGYLSSVECYNLETNE [V2M],3.87
11,YAIGGRNETGYLSSVECYNLETNE [V2A],3.08
12,YWIGGRNETGYLSSVECYNLETNE [V2W],2.44
13,YNIGGRNETGYLSSVECYNLETNE [V2N],4.24
14,YKIGGRNETGYLSSVECYNLETNE [V2K],3.91
15,YTIGGRNETGYLSSVECYNLETNE [V2T],3.5
16,YYIGGRNETGYLSSVECYNLETNE [V2Y],3.4
17,YIIGGRNETGYLSSVECYNLETNE [V2I],2.14
18,YFIGGRNETGYLSSVECYNLETNE [V2F],3.32
19,YHIGGRNETGYLSSVECYNLETNE [V2H],2.15
20,YPIGGRNETGYLSSVECYNLETNE [V2P],3.9
21,YRIGGRNETGYLSSVECYNLETNE [V2R],3.4
22,YQIGGRNETGYLSSVECYNLETNE [V2Q],2.7
